Laboratory results published in PMC11741606 (2025).

Tests used:
[1] = molecular target: Arabian camel aminopeptidase N ectodomain fused with the Fc domain of human IgG (Arabian camel (Camelus dromedarius)); test: SPR
[2] = molecular target: T1, TGEV RBD (receptor-binding domain of the transmissible gastroenteritis coronavirus spike protein) (transmissible gastroenteritis …); test: SPR
T1 chain: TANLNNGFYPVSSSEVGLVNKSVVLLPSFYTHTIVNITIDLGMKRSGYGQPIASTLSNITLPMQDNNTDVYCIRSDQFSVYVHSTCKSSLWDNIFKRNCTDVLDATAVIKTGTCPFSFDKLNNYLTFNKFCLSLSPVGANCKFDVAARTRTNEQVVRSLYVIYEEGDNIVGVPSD

Row | Binder | Kd [1] [nM] | Kd [2] [nM]
1 | PDCoV RBD (receptor-binding domain of the porcine deltacoronavirus spike protein) (domain or fragment) VTLPKLPELEVVQLNISAHMDFGEARLDSVTINGNTSYCVTKPYFRLETNFMCTGCTMNLRTDTCSFDLSAVNNGMSFSQFCLSTESGACEMKIIVTYVWNYLLRQRLYVTAVEGQTHTGTTSVHATDTSSV | 10800 | 
2 | cat aminopeptidase N ectodomain fused with the Fc domain of human IgG (Fc fusion) YSQEKNRSTESSTAASTAAPTGPTTTVATTLDQSKPWNVYRLPKTLIPDSYNVTLRPYLTPNNKGLYVFTGTNIVRFTCKESTNIVIIHSKRLNYTSHQGHMVALSGVGGFHPQPVIVRTELVELTEYLVVHLQEPLVAGRQYEMNSEFQGELADDLAGFYRSEYMENGVKKVLATTHMQATEARKSFPCFDEPAMKATFNITIIHPNNLVALSNMLPRGPSVPFGEDPTWKVTEFETTPIMSTYLLAYIVSEFSYVETRAPSGVLIRIWARPSAINQGHGDYALKVTGPILDFFSQHYDTPYPLNKSDQIALPDFNAGAMENWGLVTYRESALLYDRQSSSSGNQERVVTVIAHELAHQWFGNLVTLEWWNDLWLNEGFASYVEYLGADFAEPTWNLKDLMVLNDVYRVMAVDALASSHPLSTPASEINTPAQISEVFDSISYSKGASVLRMLSNFLTEDLFKMGIASYLHTYKYGNTIYLNLWEHLQQVVDKQPTIKLPDTVSAIMDRWILQMGFPVITVDTQTGTISQQHFLLDPQSVVTRPSQFNYLWIVPISSVRSGSPQAHYWLPGVEKAQNDLFKTTANDWVLLNLNVTGYYLVNYDNENWKKIQTQLQTDLSVIPVINRAQVIHDAFNLASAQKVPVTLALNNTLFLIQETEYMPWQAALSSLSYFKLMFDRSEVYGPMKRYLKKQVTPLFNHFERVTKNWTDHPQTLMDQYSEINAVSTACSYGVPECEKLAATLFAQWKKNPQNNPIHPNLRSTVYCNAIAQGGEEEWNFVWEQFLKAELVNEADKLRGALACSNQVWILNRFLSYTLDPNLIRKQDVTSTLSSISSNVVGQTLVWDFVQSNWKKLFQDYGTGSFSFSNLIQAVTRRFSTEFELQQLEQFKKNNMDTGFGSATRALEQALEKTKANLKWVKENKDVVLRWFTENS |  | 35.6
3 | bovine aminopeptidase N ectodomain fused with the Fc domain of human IgG (Fc fusion, Wild type. Position 797 in the paper is dog APN alignment numbering, not bovine numbering. Limits from TOPO_DOM extracellular. hFc carrier omitted. N-glycosylated (HEK293T).) YAQEKNKNAERGTAAPTSPTGPTTTSATTLDQSKPWNRYRLPTTLLPDSYRVTLRPYLTPNNNGLYIFTGSSTVRFTCKEPTDVIIIHSKKLNYTQHSGHLAALKGVGDTQAPEIDRTELVLLTEYLVVHLKSSLEAGKTYEMETTFQGELADDLAGFYRSEYMDGNVKKVLATTQMQSTDARKSFPCFDEPAMKATFNITLIHPKDLTALSNMPPKGPSVPFDGDSNWSVTEFETTPVMSTYLLAYIVSEFTSVESVAPNDVQIRIWARPKATADNHGLYALNVTGPILNFFANHYNTAYPLPKSDQIALPDFNAGAMENWGLVTYRENALLYDPQSSSSSNKERVVTVIAHELAHQWFGNLVTLAWWNDLWLNEGFASYVEYLGADYAEPTWNLKDLMVPNDVYSVMAVDALVTSHPLTTPANEVNTPAQISEMFDTISYSKGASVIRMLSNFLTEDLFKKGLASYLQTFAYQNTTYLNLWEHLQMAVENQLSIRLPDTVSAIMDRWTLQMGFPVITVDTNTGTISQKHFLLDPNSTVTRPSQFNYLWIVPISSIRNGQPQEHYWLRGEERNQNELFKAAADDWVLLNINVTGYYQVNYDENNWKKIQNQLMSRRENIPVINRAQVIYDSFNLASAHMVPVTLALNNTLFLKNEMEYMPWQAAVSSLNYFKLMFDRTEVYGPMQNYLKNQVEPIFLYFENLTKNWTEIPENLMDQYSEINAISTACSNGLPKCEELAKTLFNQWMNNPNVNPIDPNLRSTIYCNAIAQGGQEEWDFAWNQLQQAELVNEADKLRSALACTNHVWLLNRYLSYTLNPDLIRKQDATSTITSIASNVIGQSLAWDFIRSNWKKLFEDYGGGSFSFSNLIQGVTRRFSTEFELQQLEEFKENNMDVGFGSGTRALEQALEKTKANINWVKENKEVVLNWFKDHS |  | 1660
